Source: the nanobody polyreactivity screen of Harvey et al. (2022)

Assay: yeast display, Sf9 membrane polyspecificity reagent, FACS + sequencing; frameworks hold sequencing errors
Summary of the method: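 Nanobodies from a synthetic yeast display library (Saccharomyces cerevisiae BJ5465), induced 36–48 hours with galactose, were stained 1 hour at 4 °C with 10% biotinylated, detergent-solubilized Sf9 membrane reagent, enriched on streptavidin microbeads, then FACS-sorted. Anti-HA (expression) and streptavidin (reagent binding) fluorescence set low and high (top ~1%) gates. Polyreactivity labels come from the gate of origin. Genes were colony-PCR amplified, MiSeq 2 × 250 sequenced and filtered by CDR length.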

Row | Sequence | polyreactivity (PSR sort gate)
1 | QVQLVESGGGLVQAGGSLRLICAASGNIFAYYAMGWYRQAPGKERELVAGISRRAGNTYYADSVTGRFTISRDNAKNTVYLHMNSLKREDTAFYYCNKYTKRSGMDYWGQGTQVTVSS | high polyreactivity
2 | QVQLVESGGGLVQAGGSLRLICAASGNIFDLYAMGWYRQAPGKERELVAAITRSSSRTYYADSVKGRFTISRDNAKNTVSLQMNSLKPEDTAVYYCRAKQVNRVDYWGQGTQVTVSS | high polyreactivity
3 | QVQLVESGGGLVQAGGSLRLICAASGNIFSFNDMGWSRPAPGKERELVASITSGGRTNYADSVMGRFTISRDNAKNTVYLQMNSLKPEDTAVYYCAADYSVPTSQAYDYWGQGTQVTVSS | low polyreactivity
4 | QVQLVESGGGLVQAGGSLRLICAASGNIFYRYAMGWYRQAPGKERELVAAISGNSGNTYYADSVKGRFTISRDNAKNTVYLQMNSLKPEDTAVYYCNARVVVRRDYWGQGTQVTVSS | high polyreactivity
5 | QVQLVESGGGLVQAGGSLRLICAASGPTFYYYAMGWYTQAPGKERELVARISRGGSTNYADSVKGRFTISRDNAKNTVYLQMNSLKAEDTAVYYFAITISYTGGYWGYDYWGQGTQVTVSS | high polyreactivity
6 | QVQLVESGGGLVQAGGSLRLICAASGRIFCNYAMGWSRQAPGKERELVAAISSGGNTYYADSVKGRFTISRDNAKNTVYLQMNSLKPEDSAVYYCNEVYVGWQYGYDYWGQGTQVTVSS | low polyreactivity
7 | QVQLVESGGGLVQAGGSLRLICAASGRIFDDNAMGWYRQAPGKERELVATISSTGGRTYYADSVKGRFTISRDNAKNTVYLQMNSLKPEDTAVYYCAARRRQGGYYYWGQGTQVTVSS | high polyreactivity
8 | QVQLVESGGGLVQAGGSLRLICAASGRIFGIYAMGWYRQAPGKERELVASITGSSGSTNYADSVKGRFTISRDNAKNTVYLQMNSLKPEDTAVYYCAAERGYHGGGSGLYDYWGQGTQVTVSS | low polyreactivity
9 | QVQLVESGGGLVQAGGSLRLICAASGRIFGTNAIGWYRQAPGQEREVVATITRGGGNTYYADSVKGRFTISRDNAKNTVYLQMNSLKPEDTAVYYCAAKFHRFAWYAHYDYWGPGTQVTVSS | low polyreactivity
10 | QVQLVESGGGLVQAGGSLRLICAASGRIFGVYVMGLYRPAPGKERELVAAISWSGSHTYYADSVKGRFTISRDNAKNTVYLQMNSLKPEDTAVYYCNADSYPEYTGPGLDWYDYWGQGTQVTVSS | low polyreactivity
11 | QVQLVESGGGLVQAGGSLRLICAASGRIFKVYAMGWYRQAPGKERELVAVITGGGSTNYADSVKGRFTISRDNAKNTVDLQMNSLKPEDTAVYYCATEGYGHGGETDGGVYSELGSWGQGTQVTVSS | low polyreactivity
12 | QVQLVESGGGLVQAGGSLRLICAASGRIFLGYAMGWYRKAPGKERELVAAITSSSGITYYADSVKGRFTISRDNAKNSVYLQMNSLKPEDTAVYYCAARASSGRRTKRYNYWGQGTKVTVSS | low polyreactivity
13 | QVQLVESGGGLVQAGGSLRLICAASGRIFNSYAMGWFRQAPGKEMELVAAISRNGGITYYADSVKGRFTISRDNAKNTVYFQMNSLKPEDTAVYYCNADSSRRRYSSDYWGQGTQVTVSS | high polyreactivity
14 | QVQLVESGGGLVQAGGSLRLICAASGRIFPFYAMGWYRPEPGKERELVASISWSGGSTYYADSVKGRFTISRDNAKNPVYLQMNSLKPEDTAVFFCAARRWIADPGRIMDYWGQGTQVTVSS | high polyreactivity
15 | QVQLVESGGGLVQAGGSLRLICAASGRIFRGNVMGWYRQAPGKERELDAAISSGGRTYYADSVKGRFTISRDNAKNTVYLQMNSLKPEDSAVYYCAKAFREGEGKFDYWGQGTQVTVSS | high polyreactivity
16 | QVQLVESGGGLVQAGGSLRLICAASGRIFRRYAMGWYRQAPGKERELVASISLSGGSTYYADSVKGRFTISRDNAKNTVYLQMNSLKPEDTAVYYCAAVRPGVSNYGHWGQGTQLTVSS | high polyreactivity
17 | QVQLVESGGGLVQAGGSLRLICAASGRIFRVYAMGWYRQSPGKERELVAAISSRGGRTYYADSVKGRFTISRDNAKNTVYLQMKSMIPEDTAVYYCAADGRSSSRTTYRYDYWGQGTQVTVSS | high polyreactivity
18 | QVQLVESGGGLVQAGGSLRLICAASGRIFSRNAMGWYRQAPGKERELVAGISARGGRTYYADSVKGRFTISRDNAKNTVYLQMNSLKPEDTAVYYCNARTGYQDGTYGNDYWGQGTQVTVSS | high polyreactivity
19 | QVQLVESGGGLVQAGGSLRLICAASGRIFTYNGMGWYRQAPGKERELVAAISSGGSTYADSVKGRFTISRDNAKNTVYLQMNSLKPEDTAVYYCAAVKGYQGSSYQRVDWEGDYWGQGTQVSVSS | low polyreactivity
20 | QVQLVESGGGLVQAGGSLRLICAASGRIFVRNARGLYRQAPGTERELVASISQNGGRTYYADSVKGRFTISRDNAKNTVYLQMNSLKPEDTAVYYCARGRGGSRPGLDYWGQGTQVTVSS | high polyreactivity
21 | QVQLVESGGGLVQAGGSLRLICAASGRIFYAYAMGWYRQAPGKERELVATITYGGGSTYYADSVKGRFTISRDNAKNTVYLQMNSLKPEDTAVYYCAAVRTGSTLYTIRYYYWGQGTQVTVSS | low polyreactivity
22 | QVQLVESGGGLVQAGGSLRLICAASGRIFYPYAMGWYRPAPGKERELVATITRTGSTYYADSVKGRFTISRDNAKNTVYLHMNSLKPEDTAVYYCAVQRSYVGPRQYNYWGQGTQVTVSS | high polyreactivity
23 | QVQLVESGGGLVQAGGSLRLICAASGRIFYRYAMGWYRQAPGKERELVAAITWRGGSTYYADSVKGRFTISRDNAKNTVYLQMNSLKPEDTAVYYCAAAAYGVPWRSYLGVFKSHMDYWGQGTQVTVSS | high polyreactivity
24 | QVQLVESGGGLVQAGGSLRLICAASGRILYTYAMGWYRQAPGKERELVAGISRGGRTYYADSVKGRFTISRDNAKNTVYLQMNSLKPEDTAVYYCAARLQYGIQYRYDYWGQGTLVTVSS | high polyreactivity
25 | QVQLVESGGGLVQAGGSLRLICAASGRNFNHYAMGWYRQAPGKERELVAGITISCGSTYYADSVKGRFTISRDNSKNTVSLQINSLKPEVTAVYYCNAVYDYYRQSKWSMDYWGQGTQVTVSS | low polyreactivity
26 | QVQLVESGGGLVQAGGSLRLICAASGRSFDYYAMGWYRQAPGKERDLVAAITSGGTTTYYADSVKGRFTISRDNAKNTVYVQMNSLKPEDYAVYYCAKYPYHIYHTDGDYWGQGTQVTVSS | low polyreactivity
27 | QVQLVESGGGLVQAGGSLRLICAASGRTFALYAMGWYRQAPGKEREVVASISWRGGSTYYADSVKGRFTISRDTAKNTVYLQMNSLKPEDTAVDYCAADTWSYGPLNYRLEYWGQGTQVTVSS | low polyreactivity
28 | QVQLVESGGGLVQAGGSLRLICAASGRTFFRYGMGWYRQAPGKEREFVAAITRSGTTTYYADSVKGRFTISRDNAKNTVYLQMNSLKPEDTAVYYCDAQRAAPVDGKSDYWGQGTQVTLSS | low polyreactivity
29 | QVQLVESGGGLVQAGGSLRLICAASGRTFGIYAMGWYSPAPGKERELVATISWRGGSTYYADSVKGRFTISRDNAKNSVYLQMNSLKPEDTGVYYCAAGYYPYWGQGTQVTVSS | low polyreactivity
30 | QVQLVESGGGLVQAGGSLRLICAASGRTFGVNAMGWYRQAPGKERELVASIRWNGGSTYYADSVKGRFTISRDNAKNTVYLQMNSLKPEDTAVYYCNAVRRYRSREFDYWGQGTQVTVSS | low polyreactivity
